Read-outs that look alike come from different tables or passages of the source. Square brackets hold non-standard residues; d marks the D form. Ends that are not written are not given here. Abu(4-SO3H) = N[C@@H](CCS(=O)(=O)O)C(=O)O; PhLac = O=C(O)[C@@H](O)Cc1ccccc1; PLA = not defined here
How the values were obtained:
[1] = biological target: T1, human glucagon receptor (human, UniProt P47871 26-477); test: cell-based or functional assay
[2] = biological target: T1, human glucagon receptor; test: SPA competition vs 125I-glucagon, receptor membranes
[3] = biological target: human GLP-1 receptor (human, UniProt P43220 24-463); test: cell-based or functional assay
[4] = biological target: T1, human glucagon receptor; test: cell-based or functional assay; remark: listed apart in the source
[5] = biological target: T1, human glucagon receptor; test: cell-based or functional assay; remark: listed apart in the source
[6] = biological target: T1, human glucagon receptor; test: cell-based or functional assay; remark: listed apart in the source
[7] = biological target: T1, human glucagon receptor; test: cell-based or functional assay; remark: listed apart in the source
[8] = biological target: T1, human glucagon receptor; test: cell-based or functional assay; remark: listed apart in the source
[9] = biological target: T1, human glucagon receptor; test: cell-based or functional assay; remark: listed apart in the source
[10] = biological target: T1, human glucagon receptor; test: cell-based or functional assay; remark: listed apart in the source
[11] = biological target: T1, human glucagon receptor; test: cell-based or functional assay; remark: listed apart in the source

T1 sequence (P47871 26-477): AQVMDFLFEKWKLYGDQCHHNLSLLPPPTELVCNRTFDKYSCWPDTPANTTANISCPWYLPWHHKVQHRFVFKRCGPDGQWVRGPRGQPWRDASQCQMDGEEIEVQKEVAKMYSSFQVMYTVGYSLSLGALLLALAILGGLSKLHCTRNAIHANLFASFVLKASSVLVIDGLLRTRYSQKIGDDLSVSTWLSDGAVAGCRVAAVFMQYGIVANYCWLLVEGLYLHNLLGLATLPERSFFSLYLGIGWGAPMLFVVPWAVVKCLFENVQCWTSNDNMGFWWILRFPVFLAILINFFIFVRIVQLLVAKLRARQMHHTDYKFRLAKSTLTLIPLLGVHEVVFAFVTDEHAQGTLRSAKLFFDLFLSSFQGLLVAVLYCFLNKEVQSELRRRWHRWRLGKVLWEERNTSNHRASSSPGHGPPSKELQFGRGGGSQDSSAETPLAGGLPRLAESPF

Molecule “Oxyntomodulin C24 (from UniProt P01275 53-89) (peptide)” has a cAMP Induction EC50 [1] of 2.54 nM.

In the case of “Oxyntomodulin (from UniProt P01275 53-89) (peptide)”, the cAMP Induction EC50 [1] is reported as 3.25 nM.

“[desHis^1, desPhe^6] Glucagon-NH2 (peptide)” gave a cAMP Induction EC50 [1] of 1180 nM and an IC50 [2] of 130 nM.

For “Oxyntomodulin C24 PEG 20 K (from UniProt P01275 53-89) (peptide)”, the cAMP Induction EC50 [1] was 0.97 nM.

Oxyntomodulin KRNR (peptide) gave a cAMP Induction EC50 [1] of 2.77 nM and a cAMP Induction EC50 [3] of 3.21 nM.

Work on “[d-Cys5(20kDaPEG), E9]Glucagon(aa5-29) -NH2 (peptide)” yielded an IC50 (nM) (cAMP, inhibit 0.2 mM Glucagon) [1] of 14800 nM.

For SQGTFTS[Abu(4-SO3H)]YSKYLDSRRAQDFVQWLMNT-NH2 [[hCys^9(SO3H)]Glucagon(aa2-29)-NH2], the “cAMP IC50” value [4] was 147 nM.

FTSEYSKYLDSRRAQDFVQWLMNT-NH2 [[Glu^9]Glucagon(aa6-29)-NH2] was tested, and the “cAMP Inhibition IC50” value [5] was 97 nM, the “cAMP (I/A)50, inhibition index” value [6] was 486 ratio and the “cAMP IC50” value [7] was 97.2 nM.

B1: [PLA6, D9, D28]Glucagon(aa6-29)-NH2 (peptide)
peptide: FTSDYSKYLDSRRAQDFVQWLMDT
modifications: N-terminal residue is phenyl lactic acid (PLA) in place of Phe 6; C-terminal amide
For B1, the “IC50 (nM) (cAMP, inhibit Glucagon) 0.1 nM or 0.2 nM” value [8] was 1.32 nM and the “Glucagon antagonism IC50(nM, inhibit 0.5 nM G)” value [9] was 9.03 nM.

With [PhLac]TS[Abu(4-SO3H)]YSKYLDSRRAQDFVQWLMNT-NH2 [[PLA6, hCys(SO3)9]Glucagon(aa6-29)-NH2] the “IC50 (nM) (cAMP, inhibit Glucagon) 0.1 nM or 0.2 nM” value [8] was 40.2 nM.

For FTS[Abu(4-SO3H)]YSKYLDSRRAQDFVQWLMNT-NH2 [[hCys^9(SO3H)]Glucagon(aa6-29)-NH2], the “cAMP IC50” value [4] was 133 nM and the “cAMP IC50” value [7] was 133 nM.

For [PLA]TSEYSKYLDSRRAQDFVQWLMNTGPSSGAPPPS-NH2 (reading uncertain) [[PLA6, E9]Glucagon(aa6-29+CEX)-NH2], the “IC50 (nM) (cAMP, inhibit Glucagon) 0.1 nM or 0.2 nM” value [8] was 24.8 nM.

In the case of GTFTSEYSKYLDSRRAQDFVQWLMNT-NH2 [[Glu^9]Glucagon(aa4-29)-NH2], the “cAMP Inhibition IC50” value [5] is reported as 128 nM and the “cAMP (I/A)50, inhibition index” value [6] is reported as 1380 ratio.

B2: [hCys^9(SO3H)]Glucagon(aa4-29)-NH2 (peptide)
peptide: GTFTS[Abu(4-SO3H)]YSKYLDSRRAQDFVQWLMNT-NH2
modifications: N-terminus assumed
SMILES: CSCC[C@H](NC(=O)[C@H](CC(C)C)NC(=O)[C@H](Cc1c[nH]c2ccccc12)NC(=O)[C@H](CCC(N)=O)NC(=O)[C@@H](NC(=O)[C@H](Cc1ccccc1)NC(=O)[C@H](CC(=O)O)NC(=O)[C@H](CCC(N)=O)NC(=O)[C@H](C)NC(=O)[C@H](CCCNC(=N)N)NC(=O)[C@H](CCCNC(=N)N)NC(=O)[C@H](CO)NC(=O)[C@H](CC(=O)O)NC(=O)[C@H](CC(C)C)NC(=O)[C@H](Cc1ccc(O)cc1)NC(=O)[C@H](CCCCN)NC(=O)[C@H](CO)NC(=O)[C@H](Cc1ccc(O)cc1)NC(=O)[C@H](CCS(=O)(=O)O)NC(=O)[C@H](CO)NC(=O)[C@@H](NC(=O)[C@H](Cc1ccccc1)NC(=O)[C@@H](NC(=O)CN)[C@@H](C)O)[C@@H](C)O)C(C)C)C(=O)N[C@@H](CC(N)=O)C(=O)N[C@H](C(N)=O)[C@@H](C)O
With B2 the “cAMP IC50” value [4] was 68.4 nM.

B3: [PLA^4, E^9]Glucagon(aa4-29)-NH2 (peptide)
peptide: [PhLac]TFTSEYSKYLDSRRAQDFVQWLMNT-NH2
modifications: N-terminus assumed
SMILES: CSCC[C@H](NC(=O)[C@H](CC(C)C)NC(=O)[C@H](Cc1c[nH]c2ccccc12)NC(=O)[C@H](CCC(N)=O)NC(=O)[C@@H](NC(=O)[C@H](Cc1ccccc1)NC(=O)[C@H](CC(=O)O)NC(=O)[C@H](CCC(N)=O)NC(=O)[C@H](C)NC(=O)[C@H](CCCNC(=N)N)NC(=O)[C@H](CCCNC(=N)N)NC(=O)[C@H](CO)NC(=O)[C@H](CC(=O)O)NC(=O)[C@H](CC(C)C)NC(=O)[C@H](Cc1ccc(O)cc1)NC(=O)[C@H](CCCCN)NC(=O)[C@H](CO)NC(=O)[C@H](Cc1ccc(O)cc1)NC(=O)[C@H](CCC(=O)O)NC(=O)[C@H](CO)NC(=O)[C@@H](NC(=O)[C@H](Cc1ccccc1)NC(=O)[C@@H](NC(=O)[C@@H](O)Cc1ccccc1)[C@@H](C)O)[C@@H](C)O)C(C)C)C(=O)N[C@@H](CC(N)=O)C(=O)N[C@H](C(N)=O)[C@@H](C)O
For B3, the “IC50 (nM) (cAMP, inhibit 0.8 mM Glucagon)” value [10] was 84.4 nM.

B4: [PLA^5, E^9]Glucagon(aa5-29)-NH2 (peptide)
peptide: [PhLac]FTSEYSKYLDSRRAQDFVQWLMNT-NH2
modifications: N-terminus assumed
SMILES: CSCC[C@H](NC(=O)[C@H](CC(C)C)NC(=O)[C@H](Cc1c[nH]c2ccccc12)NC(=O)[C@H](CCC(N)=O)NC(=O)[C@@H](NC(=O)[C@H](Cc1ccccc1)NC(=O)[C@H](CC(=O)O)NC(=O)[C@H](CCC(N)=O)NC(=O)[C@H](C)NC(=O)[C@H](CCCNC(=N)N)NC(=O)[C@H](CCCNC(=N)N)NC(=O)[C@H](CO)NC(=O)[C@H](CC(=O)O)NC(=O)[C@H](CC(C)C)NC(=O)[C@H](Cc1ccc(O)cc1)NC(=O)[C@H](CCCCN)NC(=O)[C@H](CO)NC(=O)[C@H](Cc1ccc(O)cc1)NC(=O)[C@H](CCC(=O)O)NC(=O)[C@H](CO)NC(=O)[C@@H](NC(=O)[C@H](Cc1ccccc1)NC(=O)[C@@H](O)Cc1ccccc1)[C@@H](C)O)C(C)C)C(=O)N[C@@H](CC(N)=O)C(=O)N[C@H](C(N)=O)[C@@H](C)O
In the case of B4, the “IC50 (nM) (cAMP, inhibit 0.8 mM Glucagon)” value [10] is reported as 328 nM.

With HSQGTFTSDYSRYLDSRRAQDFVQWLMNK [Glucagon R12 K29] the “cAMP Induction EC50” value [11] was 0.81 nM and the “cAMP Induction EC50” value [3] was 0.41 nM.

For [PhLac]TSEYSKYLDSRRAQDFVQWLMNT-NH2 [[PLA6, E9]Glucagon(aa6-29)-NH2], the “IC50 (nM) (cAMP, inhibit 0.8 mM Glucagon)” value [10] was 64.8 nM and the “Glucagon antagonism IC50(nM, inhibit 0.5 nM G)” value [9] was 23.8 nM.

B5: [PLA6, D9]Glucagon(aa6-29)-COOH (peptide)
peptide: [PhLac]TSDYSKYLDSRRAQDFVQWLMNT-OH
modifications: N-terminus assumed
SMILES: CSCC[C@H](NC(=O)[C@H](CC(C)C)NC(=O)[C@H](Cc1c[nH]c2ccccc12)NC(=O)[C@H](CCC(N)=O)NC(=O)[C@@H](NC(=O)[C@H](Cc1ccccc1)NC(=O)[C@H](CC(=O)O)NC(=O)[C@H](CCC(N)=O)NC(=O)[C@H](C)NC(=O)[C@H](CCCNC(=N)N)NC(=O)[C@H](CCCNC(=N)N)NC(=O)[C@H](CO)NC(=O)[C@H](CC(=O)O)NC(=O)[C@H](CC(C)C)NC(=O)[C@H](Cc1ccc(O)cc1)NC(=O)[C@H](CCCCN)NC(=O)[C@H](CO)NC(=O)[C@H](Cc1ccc(O)cc1)NC(=O)[C@H](CC(=O)O)NC(=O)[C@H](CO)NC(=O)[C@@H](NC(=O)[C@@H](O)Cc1ccccc1)[C@@H](C)O)C(C)C)C(=O)N[C@@H](CC(N)=O)C(=O)N[C@H](C(=O)O)[C@@H](C)O
With B5 the “IC50 (nM) (cAMP, inhibit Glucagon) 0.1 nM or 0.2 nM” value [8] was 13.2 nM.

B6: [PLA6, D9]Glucagon(aa6-29)-NH2 (peptide)
peptide: [PhLac]TSDYSKYLDSRRAQDFVQWLMNT-NH2
modifications: N-terminus assumed
SMILES: CSCC[C@H](NC(=O)[C@H](CC(C)C)NC(=O)[C@H](Cc1c[nH]c2ccccc12)NC(=O)[C@H](CCC(N)=O)NC(=O)[C@@H](NC(=O)[C@H](Cc1ccccc1)NC(=O)[C@H](CC(=O)O)NC(=O)[C@H](CCC(N)=O)NC(=O)[C@H](C)NC(=O)[C@H](CCCNC(=N)N)NC(=O)[C@H](CCCNC(=N)N)NC(=O)[C@H](CO)NC(=O)[C@H](CC(=O)O)NC(=O)[C@H](CC(C)C)NC(=O)[C@H](Cc1ccc(O)cc1)NC(=O)[C@H](CCCCN)NC(=O)[C@H](CO)NC(=O)[C@H](Cc1ccc(O)cc1)NC(=O)[C@H](CC(=O)O)NC(=O)[C@H](CO)NC(=O)[C@@H](NC(=O)[C@@H](O)Cc1ccccc1)[C@@H](C)O)C(C)C)C(=O)N[C@@H](CC(N)=O)C(=O)N[C@H](C(N)=O)[C@@H](C)O
B6 was tested, and the “IC50 (nM) (cAMP, inhibit Glucagon) 0.1 nM or 0.2 nM” value [8] was 6.9 nM.

B7: [hCys^9(SO3H)]Glucagon(aa5-29)-NH2 (peptide)
peptide: TFTS[Abu(4-SO3H)]YSKYLDSRRAQDFVQWLMNT-NH2
modifications: N-terminus assumed
SMILES: CSCC[C@H](NC(=O)[C@H](CC(C)C)NC(=O)[C@H](Cc1c[nH]c2ccccc12)NC(=O)[C@H](CCC(N)=O)NC(=O)[C@@H](NC(=O)[C@H](Cc1ccccc1)NC(=O)[C@H](CC(=O)O)NC(=O)[C@H](CCC(N)=O)NC(=O)[C@H](C)NC(=O)[C@H](CCCNC(=N)N)NC(=O)[C@H](CCCNC(=N)N)NC(=O)[C@H](CO)NC(=O)[C@H](CC(=O)O)NC(=O)[C@H](CC(C)C)NC(=O)[C@H](Cc1ccc(O)cc1)NC(=O)[C@H](CCCCN)NC(=O)[C@H](CO)NC(=O)[C@H](Cc1ccc(O)cc1)NC(=O)[C@H](CCS(=O)(=O)O)NC(=O)[C@H](CO)NC(=O)[C@@H](NC(=O)[C@H](Cc1ccccc1)NC(=O)[C@@H](N)[C@@H](C)O)[C@@H](C)O)C(C)C)C(=O)N[C@@H](CC(N)=O)C(=O)N[C@H](C(N)=O)[C@@H](C)O
In the case of B7, the “cAMP IC50” value [4] is reported as 98.3 nM.
